Measured values taken from US20070178095A1 (Eli Lilly, published 2007).
Residue numbers refer to the chain shown, from its start.

T1: peptide immunogen ANYCSGESEFVFLQKYPHTHLVHQA (human)
T1 construct: For immunization it was conjugated to KLH and a helper T-cell peptide; also called immunogenic peptide; immunogenic polypeptide
T1 peptide: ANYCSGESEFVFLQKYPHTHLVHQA

T2: recombinant mouse myostatin (R&D systems, Cat. #788-G8/CF, carrier-free) (mouse, UniProt O08689 268-376)
T2 construct: mature; also called GDF-8; GDF-8/myostatin
T2 sequence (looked up): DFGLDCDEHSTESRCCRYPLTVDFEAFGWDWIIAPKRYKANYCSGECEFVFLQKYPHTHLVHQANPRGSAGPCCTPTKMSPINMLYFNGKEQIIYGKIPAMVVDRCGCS

T3: recombinant human GDF-11 (Peprotech, Inc., Cat. # 120-11, carrier-free) (human, UniProt O95390 299-407)
T3 construct: also called BMP-11
T3 sequence (looked up): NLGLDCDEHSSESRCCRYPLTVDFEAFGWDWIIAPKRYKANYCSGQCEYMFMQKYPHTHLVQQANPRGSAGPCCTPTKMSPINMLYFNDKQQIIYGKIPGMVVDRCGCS

T4: BMP-5 (R&D Systems 615-BM) (UniProt P22003 317-454, limits assumed)
T4 sequence (looked up): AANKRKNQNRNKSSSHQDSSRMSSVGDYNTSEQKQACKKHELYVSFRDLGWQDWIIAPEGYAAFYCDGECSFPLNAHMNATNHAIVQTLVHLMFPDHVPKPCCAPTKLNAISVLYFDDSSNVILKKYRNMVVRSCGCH

T5: BMP-6 (R&D Systems 507-BP) (UniProt P22004 382-513, limits assumed)
T5 sequence (looked up): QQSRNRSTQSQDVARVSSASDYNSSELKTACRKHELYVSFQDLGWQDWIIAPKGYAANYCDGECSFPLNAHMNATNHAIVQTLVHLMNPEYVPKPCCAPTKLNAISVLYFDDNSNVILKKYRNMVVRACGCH

T6: BMP-7 (R&D Systems 354-BP) (UniProt P18075 293-431)
T6 sequence (looked up): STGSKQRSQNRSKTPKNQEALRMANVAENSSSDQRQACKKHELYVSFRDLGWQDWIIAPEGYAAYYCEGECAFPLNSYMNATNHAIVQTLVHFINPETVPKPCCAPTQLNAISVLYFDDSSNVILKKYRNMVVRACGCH

T7: Activin A (R&D Systems 338-AC) (UniProt P08476 311-426)
T7 sequence (looked up): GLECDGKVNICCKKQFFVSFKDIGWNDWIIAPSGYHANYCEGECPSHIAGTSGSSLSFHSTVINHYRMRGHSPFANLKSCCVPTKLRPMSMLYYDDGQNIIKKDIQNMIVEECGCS

T8: Activin B (R&D Systems 659-AB) (UniProt P09529 293-407)
T8 sequence (looked up): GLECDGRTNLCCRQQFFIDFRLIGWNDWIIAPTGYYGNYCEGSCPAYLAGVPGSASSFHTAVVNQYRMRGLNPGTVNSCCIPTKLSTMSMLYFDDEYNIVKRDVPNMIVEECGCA

T9: TGF-beta2 (Peprotech, Inc. 100-35) (UniProt P61812 303-414)
T9 construct: also called TGF-b2
T9 sequence (looked up): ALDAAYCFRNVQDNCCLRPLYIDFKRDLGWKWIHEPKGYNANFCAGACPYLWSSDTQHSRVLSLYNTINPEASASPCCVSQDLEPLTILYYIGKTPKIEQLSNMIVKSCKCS

B1: Fab 8 (Fab, V domains shown)
VH: QVTLKESGPGILQSSQTLSLTCSLSGFSLRTSGMSVSWIRQSSGKGLEWLAHIYWDDDKRYNPSLRNRLTISKDTLRNQVFLKITSVGTADTATYYCARRAITTVIGGGTMDYWGQGTSVTVSS
VL: QIVLTQSPAIMSASPGEKVTMTCSASSSVSYMHWYQQKSGTSPKRWIYDTSKLASGVPARFSGSGSGTSYSLTISSMEAEDAATYYCQQWSSNPLTFGAGTKLELKR
notes: Mouse Fab, kappa light chain; also called anti-myostatin Fab 8
B2: Fab 5 (Fab, V domains shown)
VH: B1 VH with L24F, R30S, N67S, L76S, G88D, A101G, I106L
VL: B1 VL with I2V, P15L, S30H
notes: Mouse Fab, kappa light chain; also called anti-myostatin Fab 5
B3: Fab 11 (Fab, V domains shown)
VH: B1 VH
VL: B1 VL with V29I, S39P, S91N
notes: Mouse Fab, kappa light chain; also called anti-myostatin Fab 11
B4: Fab 3 (Fab, V domains shown)
VH: B1 VH
VL: B1 VL with V29I, S39P, S91Y
notes: Mouse Fab from a Biosite Omniclonal library, kappa light chain (detected or captured with goat anti-mouse kappa); also called anti-myostatin Fab 3
B5: Fab 14 (Fab, V domains shown)
VH: B1 VH
VL: B1 VL with S39P, S91Y
notes: Mouse Fab, kappa light chain; also called anti-myostatin Fab 14
B6: Fab 10 (Fab, V domains shown)
VH: B1 VH with S14P, K59E
VL: B1 VL with I2V, V29I, S39P, S91Y
notes: Mouse Fab, kappa light chain; also called anti-myostatin Fab 10
B7: Fab 15 (Fab, V domains shown)
VH: B1 VH
VL: B1 VL with K18E, V29I, S30N, S91N, A99G
notes: Mouse Fab, kappa light chain; also called anti-myostatin Fab 15
B8: Fab 12 (Fab, V domains shown)
VH: B1 VH with I11M
VL: B1 VL with I2V, S30Y, K38R, T41A, S91T, S92Y
notes: Mouse Fab, kappa light chain; also called anti-myostatin Fab 12
B9: Fab 7 (Fab, V domains shown)
VH: QVTLKSGPGILQSSQTLTLTCSLSGFSLTTSGMIVSWIRQSSGRGLEWLAHIYWDDDKRYNPSLRNRLTISKDTLRNQVFLWISSVGTADTATYYCARRAITTVIGGGTMDYWGQGTSVTVSS
VL: B1 VL with V29I, S39P, S91Y
notes: Mouse Fab, kappa light chain; also called anti-myostatin Fab 7

Molecular target: T1, peptide immunogen …
Experiment: ELISA, peptide coated at 2 ug/ml, Fab 0.016-10 ug/ml
Procedure: Each well of two 96-well plates is coated with 70 μl of the peptide immunogen used to generate the Fabs (2 μg/ml in carbonate buffer, pH 9.6). The plates are incubated in a dry oven at 37° C. overnight with the lids removed. The wells are aspirated and washed twice with washing buffer (20 mM Tris (hydroxymethyl) aminomethane, pH 7.4, 0.15 M NaCl, 0.1% Tween-20). The plates are blocked with 200 μl blocking buffer per well (5% BioRad blotting grade milk in the above washing buffer) for 2.5 hours.
The Fabs are diluted into blocking buffer at 10 μg/ml, 2 μg/ml, 0.4 μg/ml, 0.08 μg/ml, and 0.016 μg/ml. A rat anti-myostatin monoclonal antibody (R&D Systems, catalog #MAB788, clone #84214) and a polyclonal anti-myostatin antibody (R&D Systems, catalog #AF788), are used as controls at the above concentrations and are also diluted in blocking buffer. Fifty microliters of each antibody solution is added to the peptide-coated wells in duplicate. The plates are incubated for 1.5 hours at room temperature. The wells are then washed 3 times with washing buffer.
Peroxidase-conjugated secondary antibody (50 μl goat anti-mouse kappa HRP (Southern Biotech) for Fabs, 50 μl mouse anti-rat (Jackson ImmunoResearch) for monoclonal, 50 μl rabbit anti-goat (Jackson ImmunoResearch) for polyclonal, all diluted 1:2000 in blocking buffer is added to each well and incubated for 1 hour at room temperature. The wells are then washed 3 times with washing buffer. Fifty microliters of chromogenic substrate (i.e., OPD substrate) is added to each well and allowed to develop at room temperature for 10 minutes. The reaction is stopped by adding 100 μl 1N HCl to each well. The absorbance of the wells is read at 490 nm.

Row | Binder | binding result
1 | B1 | binds
2 | B2 | binds
3 | B3 | binds
4 | B4 | binds
5 | B5 | binds
6 | B6 | binds
7 | B7 | binds
8 | B8 | binds

These binders were tested against T2, recombinant mouse myostatin (R&D …) (assay: ELISA, growth factor coated at 10 ug/ml, Fab at 10 ug/ml, mean of duplicate wells).
Procedure: (§1) Peroxidase-conjugated secondary antibody (50 μl goat anti-mouse kappa HRP (Southern Biotech) for the Fabs, 50 μl rabbit anti-goat (Jackson ImmunoResearch) for the polyclonal, diluted 1:2000 in blocking buffer) is added to each well and incubated for 1 hour at room temperature. The wells are then washed 3 times with washing buffer. Fifty microliters of chromogenic substrate (i.e., OPD substrate) is added to each well and allowed to develop at room temperature for 10 minutes. The reaction is stopped by adding 100 μl 1N HCl to each well. The absorbance of the wells is read at 490 nm.

Row | Binder | absorbance at 490 nm [OD 490 nm]
9 | B9 | 0.358
10 | B2 | 0.202
11 | B4 | 0.419

What follows are binders tested against T3, recombinant human GDF-11 (Peprotech, …) in the same assay as above.
Procedure: as §1

Row | Binder | absorbance at 490 nm [OD 490 nm]
12 | B9 | 0.04
13 | B2 | 0.034
14 | B4 | 0.0705

Each binder was assayed against T10, IGF-1 (R&D Systems 291-G1) (UniProt P05019 49-118) in the same assay as above.
T10 construct: Negative control antigen
Procedure: as §1

T10 sequence (P05019 49-118 limits assumed): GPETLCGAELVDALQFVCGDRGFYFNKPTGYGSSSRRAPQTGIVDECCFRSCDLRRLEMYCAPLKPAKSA

Row | Binder | absorbance at 490 nm [OD 490 nm]
15 | B9 | 0.034
16 | B2 | 0.035
17 | B4 | 0.034

These binders were tested against BMP-2 (R&D Systems 355-BEC/CF) (UniProt P12643 283-396) in the same assay as above.
Procedure: as §1

Sequence of BMP-2 (R&D Systems 355-BEC/CF) (P12643 283-396 limits assumed): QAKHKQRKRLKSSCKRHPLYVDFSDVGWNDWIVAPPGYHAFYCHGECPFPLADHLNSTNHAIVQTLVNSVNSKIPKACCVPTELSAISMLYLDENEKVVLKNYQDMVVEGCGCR

Row | Binder | absorbance at 490 nm [OD 490 nm]
18 | B9 | 0.0335
19 | B2 | 0.032
20 | B4 | 0.0345

What follows are binders tested against T4, BMP-5 (R&D Systems 615-BM) in the same assay as above.
Procedure: as §1

Row | Binder | absorbance at 490 nm [OD 490 nm]
21 | B9 | 0.0345
22 | B2 | 0.033
23 | B4 | 0.034

Each binder was assayed against T5, BMP-6 (R&D Systems 507-BP) in the same assay as above.
Procedure: as §1

Row | Binder | absorbance at 490 nm [OD 490 nm]
24 | B9 | 0.035
25 | B2 | 0.0325
26 | B4 | 0.0335

What follows are binders tested against T6, BMP-7 (R&D Systems 354-BP) in the same assay as above.
Procedure: as §1

Row | Binder | absorbance at 490 nm [OD 490 nm]
27 | B9 | 0.031
28 | B2 | 0.032
29 | B4 | 0.033

These binders were tested against T7, Activin A (R&D Systems 338-AC) in the same assay as above.
Procedure: as §1

Row | Binder | absorbance at 490 nm [OD 490 nm]
30 | B9 | 0.0325
31 | B2 | 0.033
32 | B4 | 0.033

These binders were tested against T8, Activin B (R&D Systems 659-AB) in the same assay as above.
Procedure: as §1

Row | Binder | absorbance at 490 nm [OD 490 nm]
33 | B9 | 0.031
34 | B2 | 0.033
35 | B4 | 0.032

What follows are binders tested against TGF-alpha (R&D Systems 239-A) (UniProt P01135 40-89) in the same assay as above.
Procedure: as §1

Sequence of TGF-alpha (R&D Systems 239-A) (P01135 40-89 limits assumed): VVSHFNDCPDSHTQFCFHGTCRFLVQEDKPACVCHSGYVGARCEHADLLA

Row | Binder | absorbance at 490 nm [OD 490 nm]
36 | B9 | 0.0315
37 | B2 | 0.033
38 | B4 | 0.033

Each binder was assayed against T11, TGF-beta1 (Peprotech, Inc. 100-21R) (UniProt P01137 279-390) in the same assay as above.
T11 construct: also called TGF-b1
Procedure: as §1

T11 sequence (P01137 279-390 limits assumed): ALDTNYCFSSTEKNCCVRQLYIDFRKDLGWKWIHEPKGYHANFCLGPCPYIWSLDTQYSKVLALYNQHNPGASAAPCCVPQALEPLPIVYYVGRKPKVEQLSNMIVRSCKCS

Row | Binder | absorbance at 490 nm [OD 490 nm]
39 | B9 | 0.032
40 | B2 | 0.0325
41 | B4 | 0.034

What follows are binders tested against T9, TGF-beta2 (Peprotech, Inc. 100-35) in the same assay as above.
Procedure: as §1

Row | Binder | absorbance at 490 nm [OD 490 nm]
42 | B9 | 0.0345
43 | B2 | 0.034
44 | B4 | 0.034
